assay: soluble on expression in E. coli; label from the status in PepcDB or PDB records

Sequence | soluble on expression in E. coli
MSLELVSFVKSHIDQAVYFSTITSNPIEFNLPESLSLDTTDIENDIKTSCDEIFYSTGSYIPPMLNTLEQHLNLRIEYFNNLIEFTKINFNYKISPTVKLYLIEKISILKCCLALFKYISDKAILSNIWRDLVLNSFNDSSLEEFVLGKLDEFPRLFTIFLNDLSAKIVGFNDVEEKVKIVDLLITCVYDAVLENCEKSIRYDALQLDPLELDNKPMWFTNLTNIKAMNNIFFSFIFPDNDLSVENKQRLLTVVKLLYYVINQNMIWHKSMKQIETEEYKEVEALYNDNHANWIHVLCNIGVHEEALQICEFYHDLGGLVEILEKLDFEISRELYDQYFKMFGYEFATILFEYYINAKDLKALFFKFPNHHDLLNKFLLSSPPKYYKYAWIQEIIDNDYRKASDILTTLSVGEAGDGCEISERQLHLNIAKLSGLVDENFDANQMIEIQRDIDTIDHQTRIKKLLEEDPTGISMNQAFANNEFGEKFQETKYCIQNDKSINIKYIIDMLSMMDSVENLYEALKLTCIYRHSLGYEVSKYFQQSIWRRCIIEESKDGVIQLEGENSKIYQLLVKYFEGKLYEYDCKLPFVSFLMDRIGISMNFLSIIYGNDNNVLVSISDSIEREYHDLIRIGDTLESQLSTIIGSANESTGNECTINYETKSIEYEGHHHHHH | soluble
MSLEMEHINENTIRVLIGNEDLADRGITFLDLLGNHKDVENFFYSILEEVDVEDEFQGSEAVTFQVLPKNDGLELFISKNVAMDDLSSLEGLSEVNADVSELIRKQIEADKAAADELDEMEATDETNRNVIFELDNFEAMIQLSKEVFMQSVLTNLYTYNDRYYLQVLFLTDELEKTNVDNEIAQILEFAHKTTVTQDTLVEYGTCIMERSALELTRYYFNDEGHHHHHH | soluble
MSLEMYPKIEDIKASYQNYCEFLEKVNTINLLKHKGKYIHYEDFNDNQIKRKIEKLESSILKTNVKYQKGAYIIYYKLRPGVIEFLRTMSEKYEIYLYTMGTLEHAKSCLFLLDPLRKFFGNRVFSRKDCLNSLKHLNKILPTYRSVSICIDDSDYIWKENSSCIKVHGYNYFPDINFFEDIKRAPYFLTKFFTFAQSYLNFTSNIYRFINFKCSEHEEFLKEGHHHHHH | not soluble
MSLENKIVKIEPQSIAEEMGIEVGDSLISINGKEVKDIIDYRFLMADEYVVVKIQKTNKEIWELEIEKEYDEKLGVEFESGILDSAKSCRNKCIFCFIDQLPKGMRKTLYFKDDDSRLSFLQGNFVTLTNMSDDDIDRIIKYRISPINISVQTTNPELRKKMLNNKFAGNLMERMKKLSNAGITMNCQVVLCPGINSGEEFSKTVNDLYKLYPSVKNIAGVPVGITSYREGLFNMVPYDSQSALKEIENIKPIQEKFIKEIGSPFVRLSDEFYVLSGIPIPKAEFYGEFEQFEDGIGMIRTFRDNINMSLDNLKDGIHKSFTMVTGVLAYEEIENAAKMLMEKSRGLKINVIKVINEFFGEKITVAGLLTGRDILNYLKRNEVGDYIILPSNMLKSDEDVFLDDVKVLDIEKELNKKVLVCNYSGEDLVDIINKNGREEEGHHHHHH | not soluble
MSLENTEKLKNSKEVIAYIAECFPNCFTLEGEAKPLKIGIFQDLADRLNDDPKVSKTQLRAALRQYTSSWRYLHGVKPGATRVDLDGNPCGELEEQHVEHAQAALAESKARVEARRKEQVKKVREEAKANKPKAKKPQQARRPQNAPKVEKKPVETRALAASELNVGNQVNVNMGKGNMAATIVEVNKEDVRVQLANGLQMVVKAEHLRAEGGSHHHHHH | soluble
MSLEPIGNVIKKIVKERNLGSKEDILNQVLQDPDINAFLQANKAKIDQKMIKNSMSGLYEFYSQKRNPSKVMAGYAPQLFLNGKVIDVRYAPTQAKVAQDRKRAAKKRLHLIDLPGRLHDVELSKIDITDDRNQVLTLIYDFLNKYSKDSHQQGLYLSGDFGVGKTYILAGLANYVVTNMEKDVVFLHVPTFIAGLASHFGDNSLQDEIRRLSECDLLILDDIGAETLSQWSRDDVLGVILQARMDNVLPTFFSSNLDMEALESHFEETRNATDPVKARRLMQRIRFLAKEVVVSGPDRRNSLREGHHHHHH | soluble
MSLEVYFSGTIERIIFENPSNFYRILLLEIDDTDAEDFDDFEIIVTGTMADVIEGEDYTFWGQIVQHSKYGEQLQISRYDRAKPTSKGLVKYFSSSHFKGIGLKTAQKIVDTYGENTIDEILQHPEKLEGIAGLSAKNREAFVSTLRLNYGTEMILAKLANYGIPNKLAFQIQDFYKEETLDVVENYPYQLVEDIKGLGFTIADQLAEELGIESQAPERFRAGLVHSLFQACMETGDTYVEARDLLEQTLTLLESSRPVELDPSQVAQELSYLIEEDKVQQIDTKIFDNSLFFAEEGIRSHLVRILEKGKQKSHDLETIQKHITTVEQELGIEYDNIQKQAICDAIQNKVFILTGGPGTGKTTVINGIIAVYALLEGLDFRKKSNLPILLAAPTGRAARRMNELTGLPSATIHRHLGMTGDDDTSHLEDYLDADFIIVDEFSMVDTWLANQLFSNISSNSKILIVGDSDQLPSVSPGQVLADLLHIPLIPQTRLEKIYRQSKESTIVTLASQIRQGILPADFTQKKADRSYFEIASGHIPATIEKILGAALRNGIPARDIQVLAPMYRGTAGIDAINQLMQDLLNPPQKDQLSFEAPQCHYRKRDRVIHLVNDAEINVFNGDLGAITDLIPGKYTESKQDEIVIDFDGNEVSYPRNEWYKIRLAYAMSIHKSQGSEFPVVILPITSASRRMLERNLIYTAITRAKSKLILLGELQAFDYATQHIGTARKTYLIERFSDLLENVEEKQQAVSETVTSSASEQSYILTEENWDRIPAMIGITDTDLKEIFGKEGHHHHHH | soluble
MSLFHFVIKGTGFSSKNLQEIKVYEETLFCIDEAGVIQEIIEPDAEAYETVLAEQKEAQRFQELPQDSYLLPGFVDLHVHAPQWAQSGTALDIPLYEWLNTYTFPLESKFADLAFAQQVYDELVTQLLANGTTTALYFATIHYEASRRLAEICAEKGQRGLIGKVVMDDLNENPEYYRDQTTQQALEETERFIQEIQTLAQQTKQGVYPVVTPRFIPSCTEEALKGLGELAAKYQVHVQSHCSESDWEHQFVQERFEKNDAQALNDFGLLTEKAVMAHAGFLEEADMNLFHETGTAVAHCPISNAYFGNAVTPIAKLVHQHQVEVGLGSDLSGGFSPSLFDNLKQAVISSRMLEDGVDATKKPEVRGVKTARITVNEAFYLATAGGGQALSLPIGKLEKGYAWDVQIINTSLSQARIPKNPGESLLDIFQKILYLARPENIREVWVQGEKVHDKNLMSATKGVEGHHHHHH | soluble
MSLFLDVQGTLISDHDKSLIHGAKELIDFLNAKNLPYLIITNNTKKLDFLEKLQQKGLVIKENAYIDPFSVLKHLLRPCKVAAFGADEFVKSLENLGFELDFVNPSAVLVASYDDFKFKDFATMIELARREVRFIAMHETSIYKKDGRPYPGVGSIMAMLKNAIDFEYEVVGKPSIAFYKEALNLIRRQNSKIDFEDIKIISDDFRGDLLKAKELGMKTLLVLSGKISDTKGLDTDLLDGVYPSVFEFLKDLKCQIEGHHHHHH | not soluble
MSLFQMSYYYSGLGWDFIQHVDQTNGVLNVVSPDFFYIRKDGSLLLRSANPDVIKALHRRKLKVVPFLSNHWDQDLGRFALMNRVLLAKQISHAIEELDLDGVNIDIENLTEKDRNLFTDFIRLVRKSIPRHKEVSVAVAANPFGWTKGWHGSYDYEYLAKYADYLMVMAYDESRLAGPTASVGWVEKSIQYVLTQKISPQKLVLGLPFYGRCWMEGQSASQAIPLYLVVSKKAEGHHHHHH | not soluble
MSLFTGPIVAVGEYVEGLGEGRRYVSIPYYRREIERVIGARPFPGTFNVRVEREERESLRELASSYGYRIEPHGEYGGAWLYPCLVNGRPAWLVFPDLTEHRDQVELISETELRRELNVIHGDMVKIEVWGPSTWKLARRLTCGPSGGREGHHHHHH | soluble
MSLGAFLDKPKTEKHNAHGAGNGLRYGLSSMQGWRVEMEDAHTAVVGIPHGLEDWSFFAVYDGHAGSRVANYCSTHLLEHITTNEDFRAAGKSGSALELSVENVKNGIRTGFLKIDEYMRNFSDLRNGMDRSGSTAVGVMISPKHIYFINCGDSRAVLYRNGQVCFSTQDHKPCNPREKERIQNAGGSVMIQRVNGSLAVSRALGDYDYKCVDGKGPTEQLVSPEPEVYEILRAEEDEFIILACDGIWDVMSNEELCEYVKSRLEVSDDLENVCNWVVDTCLHKGSRDNMSIVLVCFSNAPKVSDEAVKKDSELDKHLESRVEEIMEKSGEEGMPDLAHVMRILSAENIPNLPPGGGLAGKRNVIEAVYSRLNPHRESDGGAGDLEDEGHHHHHH | soluble
MSLGAGQPLGGYAEDLEGRQADLPKYSRANVRIVFAAVFPESNVYQGGEGYPTPSSSRLLLLDQVKTYYALSSIHGVEIIESWRSAQEVLEAPRWRLGLLLHLEGADALADILDLELLHRLGFRSLGLTWNHDNRWAASCKTRRDYGLTQSGEDLVKKAAELGVIIDLAHASDKTVADAASASPKPVIVSHANFRWKVDSPRNVGEEAVEAVVSKGGVIGYSLISTLITRGRHPTLHDVASQMAEFVEVYGHRHLAIGTDYHGLLDIRPPTGLESIDRLPRLLEALADAGLSDRQIEAIAYGNIARVIREVLPGSEGHHHHHH | soluble
MSLGAQADTILNVATAGDQNMVDYVKTWLGPKFEAAHPGVKVRVIGTGPGDAGSNKISEKLTAQQESGAQQWDIDVAVVHQKAGGEQVAKGLLQKYRQDIQTGGMVSSPSATQALGVNVDGYVMPMFLSQTAIAWNSDLVTTPPASYDELVAWTQKHPQAFGYNGIKNGMSGVSFVVGWIYAYGTDAQRLSAGPYDKSVEKGWQQAYEKLKAFNKNVTFTPGNAGTLDMLSRGEIAMGPVWVDMFYSWKDQGKLPPSIKLALLAPGMPGQPMYYVIPAKAANPQLARDFIALATSPEVQAQGIVKQFNWYPGIDAGQVKPKLDAATWQKLFAEISPEALAKYGKSFPIAPYFDDIKEGYESQVANEGHHHHHH | soluble
MSLGDLLTFATGHKYYGINFDEDERGWYYREWAPEAYEVYLTGDFNDWDRRSHPLTRNEFGVWQIFLPYDLYQKRFVHKSKIKVQIVGANGTHDRIPAYITRVVQDTETTDFSGQLWFPQKPFEWTDRDFNLRKIKNPIIYEAHVGMAQEKEGVGTYREFADKIVPRIRQMGYNSIQLMAVMEHPYYGSFGYHVSNFFAPSSRFGTPEDLKYLVDRAHKFGLAVIMDVVHSHAVKNLSEGLNEFDGSDHQYFHPGDRGYHTGWDSKLFDYGKLEVKRFLLSNLRYWLEEYHFDGFRFDGVTSMLYFDHGMKTFDSYDTYFKGGVDFDAVTYLQLANEVTHRYLKDSITIAEDVSGMPGLSRSIRDGGVGFDYRLAMGIPDFWIKYLKHLQDEQWNIYEMWSTLTNRRYKEKTIAYAESHDQAMVGDKTIAFWLMDKEMYFHMQVDDPNPVIDRGIAIHKLLRLFTFALGGEGYLNFMGNEFGHPEWIDFPREGNGWSYQYARRQWSLVDNPKLKYQYLGAFDEAMMRLVRKTRLLAAEPAQQLNMDDHNKVIIFERNNMIFVFNFSVSNSVFDYKFKSFAPGTFEIVLNSDDTRFGGHGRVDDTLEYHTNTEGQLSIYTPNRSVLVFQRKEASEGHHHHHH | not soluble
MSLGEKTKLEQIKDNGKLVVGTSAEFPPFEFHKVVDGKDSIKGFDIMLAEEFAKELGVKVEIKDMSFDGLIGALNADQVDIVLAGMSPTPEREKSVDFSELYYLSRNAVIVKDADIDKVKTEDDLKKLRVGVQAGSIQEEYVVNTLKMTTTKSLKAIPDLITELKNGNIDAVVTNEAVSLINVKKYDGIKMANTEVGKDVTEGMAAAIKKSDNNKDFIELLNKKIKELQDGKKIEEFLNEASTEAASEGHHHHHH | soluble
MSLGHELYLVGGSVRDALLGRLSPDLDFTTDARPERVQEIVRPWADAVWDTGIEFGTVGVGKSDHRMEITTFRADSYDRVSRHPEVRFGDCLEGDLVRRDFTTNAMAVRVTATGPGEFLDPLGGLAALRAKVLDTPAAPSGSFGDDPLRMLRAARFVSQLGFAVAPRVRAAIEEMAPQLARISAERVAAELDKLLVGEDPAAGIDLMVQSGMGAVVLPEIGGMRMAIDEGHHHHHH | not soluble

Source: the DeepSol protein solubility set
